Laboratory results reported in PMC10090120, “Cryo-EM structures of mitochondrial ABC transporter ABCB10 in apo and biliverdin-bound form” (Nature Communications, 2023).

Biological target: the molecule itself
Assay: cryo-EM structure; ABCB10 E659Q at ~4 mg/mL in 50 mM HEPES pH 7.5, 150 mM NaCl, 0.005% GDN, 0.0005% CHS, incubated with 1 mM biliverdin for 30 min and vitrified; BV-free (apo) and BV-bound maps from a single data set; C2 symmetry

B1: human ABCB10 (residues A152-A738) E659Q mutant (domain or fragment, UniProt Q9NRK6 152-738, looked up)
chain: AGLPEARKLLGLAYPERRRLAAAVGFLTMSSVISMSAPFFLGKIIDVIYTNPTVDYSDNLTRLCLGLSAVFLCGAAANAIRVYLMQTSGQRIVNRLRTSLFSSILRQEVAFFDKTRTGELINRLSSDTALLGRSVTENLSDGLRAGAQASVGISMMFFVSPNLATFVLSVVPPVSIIAVIYGRYLRKLTKVTQDSLAQATQLAEERIGNVRTVRAFGKEMTEIEKYASKVDHVMQLARKEAFARAGFFGATGLSGNLIVLSVLYKGGLLMGSAHMTVGELSSFLMYAFWVGISIGGLSSFYSELMKGLGAGGRLWELLEREPKLPFNEGVILNEKSFQGALEFKNVHFAYPARPEVPIFQDFSLSIPSGSVTALVGPSGSGKSTVLSLLLRLYDPASGTISLDGHDIRQLNPVWLRSKIGTVSQEPILFSCSIAENIAYGADDPSSVTAEEIQRVAEVANAVAFIRNFPQGFNTVVGEKGVLLSGGQKQRIAIARALLKNPKILLLDQATSALDAENEYLVQEALDRLMDGRTVLVIAHRLSTIKNANMVAVLDQGKITEYGKHEELLSKPNGIYRKLMNKQSFISA
notes: E659Q in the Walker-B motif; The vector adds a C-terminal TEV protease site before the FLAG and 10xHis tags; no cleavage is described; The model of ABCB10-apo covers residues 156-724 (528-532 missing), that of ABCB10-BV residues 154-724 (629-631 missing); also called ABCB10 E659Q; ABCB10-apo
- stoichiometry N: 2
